{
  "source": "patent US20110311515A1",
  "substrate": "F protein of RSV (hRSV strain Long LM-2) (hRSV strain Long) (UniProt P12568)",
  "sequence (P12568 26-574)": "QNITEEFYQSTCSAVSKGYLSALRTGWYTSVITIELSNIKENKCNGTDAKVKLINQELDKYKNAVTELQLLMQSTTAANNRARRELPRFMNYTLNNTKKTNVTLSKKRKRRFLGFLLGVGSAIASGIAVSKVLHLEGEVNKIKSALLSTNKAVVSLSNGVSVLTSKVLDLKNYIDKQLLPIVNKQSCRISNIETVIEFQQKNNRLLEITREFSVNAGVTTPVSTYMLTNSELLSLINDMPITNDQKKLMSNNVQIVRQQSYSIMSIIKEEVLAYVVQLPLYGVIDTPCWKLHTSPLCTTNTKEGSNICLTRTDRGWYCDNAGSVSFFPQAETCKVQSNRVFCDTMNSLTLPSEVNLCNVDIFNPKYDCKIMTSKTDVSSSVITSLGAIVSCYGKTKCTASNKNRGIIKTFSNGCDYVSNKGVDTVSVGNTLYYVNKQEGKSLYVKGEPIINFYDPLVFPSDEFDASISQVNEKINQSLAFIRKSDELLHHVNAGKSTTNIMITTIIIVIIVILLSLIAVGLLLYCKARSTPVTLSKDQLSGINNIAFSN",
  "assay": "cell-based or functional assay",
  "data": [
    {"binder": "building block of RSV407 (monovalent Nanobody) (VHH) VHH: EVQLVESGGGLVQAGGSLSISCAASGGSLSNYVLGWFRQAPGKEREFVAAINWRGDITIGPPNVEGRFTISRDNAKNTGYLQMNSLAPDDTAVYYCGAGTPLNPGAYIYDWSYDYWGRGTQVTVSS", "values": [
      {"measurement": "IC50, neutralization of RSV infection, Long strain", "value": "50 to 100", "unit": "nM"}
    ]},
    {"binder": "RSV407 (VHH) EVQLVESGGGLVQAGGSLSISCAASGGSLSNYVLGWFRQAPGKEREFVAAINWRGDITIGPPNVEGRFTISRDNAKNTGYLQMNSLAPDDTAVYYCGAGTPLNPGAYIYDWSYDYWGRGTQVTVSSGGGGSGGGGSGGGGSEVQLVESGGGLVQAGGSLSISCAASGGSLSNYVLGWFRQAPGKEREFVAAINWRGDITIGPPNVEGRFTISRDNAKNTGYLQMNSLAPDDTAVYYCGAGTPLNPGAYIYDWSYDYWGRGTQVTVSSGGGGSGGGGSGGGGSEVQLVESGGGLVQAGGSLSISCAASGGSLSNYVLGWFRQAPGKEREFVAAINWRGDITIGPPNVEGRFTISRDNAKNTGYLQMNSLAPDDTAVYYCGAGTPLNPGAYIYDWSYDYWGRGTQVTVSSAAAEQKLISEEDLNGAAHHHHHH", "values": [
      {"measurement": "IC50, neutralization of RSV infection, Long strain", "value": 0.1, "unit": "nM"}
    ]}
  ]
}
